# Data: US20090269336A1 (TAIWAN LIPOSOME, published 2009)
# T1: recombinant VEGF3-114 (human, UniProt P15692 209-320)
# T1 sequence: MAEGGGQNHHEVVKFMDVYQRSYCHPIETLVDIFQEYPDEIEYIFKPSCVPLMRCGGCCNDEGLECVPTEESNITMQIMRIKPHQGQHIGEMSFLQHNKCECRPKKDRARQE
# T2: VEGF3-33 (human)
# T2 construct: Truncated VEGF fragment expressed in E. coli as a fusion protein detected by anti-penta-His; Tested denatured in cell lysate by Western blot
# T2 chain: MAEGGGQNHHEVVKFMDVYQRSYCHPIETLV
# T3: VEGF3-63 (human, UniProt P15692 209-269)
# T3 construct: Truncated VEGF fragment expressed in E. coli as a fusion protein detected by anti-penta-His
# T3 sequence: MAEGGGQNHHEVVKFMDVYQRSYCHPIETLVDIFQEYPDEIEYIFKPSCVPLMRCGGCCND
# T4: VEGF3-93 (human, UniProt P15692 209-299)
# T4 construct: Truncated VEGF fragment expressed in E. coli as a fusion protein detected by anti-penta-His
# T4 sequence: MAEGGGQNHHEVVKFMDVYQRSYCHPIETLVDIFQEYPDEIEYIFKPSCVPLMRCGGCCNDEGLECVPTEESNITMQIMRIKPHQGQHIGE
# T5: VEGF3-100 (human, UniProt P15692 209-306)
# T5 construct: Truncated VEGF fragment expressed in E. coli as a fusion protein detected by anti-penta-His
# T5 sequence: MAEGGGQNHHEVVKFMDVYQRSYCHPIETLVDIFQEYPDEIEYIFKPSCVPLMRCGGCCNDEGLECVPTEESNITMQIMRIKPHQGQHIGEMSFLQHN
# B1: VC300 mAb (antibody, IgG1, V domains shown)
# VH: EIQLLQSGPELVKPGASVKISCKASGYSFTGYFMNWVMQSHGRTLEWIGRINPYTGETLYNQKFKDKATLTAEISSSTAHMELRSLASDDSAVYFCARRGYAGSGGIYSMDSWGPGTSVTVSS
# VL: EIVLTQSPAIMSASLGERVTMTCTASSAVSSSYLHWYHQKPGSSPKLWIFSTSNLASGVPSRFTGSGSGTSYSLTISSVEAEDAATYYCHQYHRSPYTFGAGTKLELN
# notes: Mouse hybridoma antibody (BALB/c), purified from mouse ascites; isotype determined to be IgG1; constant regions are not; also called anti-VEGF monoclonal antibody
# Key:
# [1] = target: T1, recombinant VEGF3-114; assay: cell-based or functional assay
# [2] = target: T2, VEGF3-33; assay: Western blot of E. coli lysates
# Description: (§1) To elucidate the binding epitope of VC300 mAb, the VEGF₃₋₁₁₄ (SEQ ID NO: 8) and five VEGF fragments, VEGF₃₋₃₃, VEGF₃₋₆₃, VEGF₃₋₉₃, VEGF₃₋₁₀₀, and VEGF₃₋₁₀₇ (see FIG. 1B), were used in the mapping. Nucleotide sequences of all these constructs were verified by DNA sequencing. Expression profiles of fusion proteins were analyzed by 12.5% SDS-PAGE and Western blot analysis with anti-penta-His monoclonal antibody (Qiagen, Valencia, Calif.). The lysates were used in verification of the binding epitope of VC300 mAb.
# (§2) E. coli cells containing various truncated fragments of VEGF cDNA in expression vector were induced to express recombinant proteins with 0.4 mM isopropyl-β-D-thiogalactopyranoside (IPTG, Sigma-Aldrich, St. Louis, Mo.) at 37° C. for 3 h and the cells were harvested by centrifugation at 10,000 rpm for 2 min. The cell pellets were suspended and lysed with protein sample buffer, boiled for 10 min and analyzed by a 12.5% SDS-PAGE. For Western blot analysis, the gels were electroblotted onto PVDF membranes and the membranes were blocked with 5% skim milk in phosphate-buffered saline, pH 7.4 containing 0.05% Tween 20 at RT for 1 h, probed with a 1:1000 dilution of anti-penta-His monoclonal antibody or VC300 mAb followed by reaction with HRP-conjugated goat anti-mouse immunoglobulin (Chemicon Int., Temecula, Calif.). The binding reaction was detected by the addition of the diaminobenzidine (Sigma-Aldrich, St. Louis, Mo.) color development reagent, 0.05% diaminobenzidine, 0.005% hydrogen peroxide in 0.1 M Tris-HCl, pH 7.4.
# [3] = target: T3, VEGF3-63; assay: Western blot of E. coli lysates
# Description: as §1, §2
# [4] = target: T4, VEGF3-93; assay: Western blot of E. coli lysates
# Description: as §1, §2
# [5] = target: T5, VEGF3-100; assay: Western blot of E. coli lysates
# Description: as §1, §2
# [6] = target: T1, recombinant VEGF3-114; assay: competitive ELISA: VC300 mAb equilibrated with soluble VEGF3-114, then added to wells coated with VEGF3-114
# Description: The VC300 mAb was purified from mice ascites by ammonium sulfate precipitation and CM Sepharsoe chromatography (GE Healthcare, Piscataway, N.J.). The purified VC300 mAb was analyzed by 7.5% SDS-PAGE and the protein concentration was quantitated by the absorbance at 280 nm. Isotype determination of VC300 mAb was carried out by a monoclonal antibody isotyping kit I obtained from PIERCE (Rockford, Ill., USA). The dissociation constant (Kd) of antigen-antibody interaction was determined by competitive ELISA [Lin et al., (1997) Anal. Biochem., 254: 9-17]. In brief, the antigen, VEGF₃₋₁₁₄, at various concentrations was incubated with the antibody, VC300 mAb at 4° C. for overnight to reach equilibrium. The mixtures were transferred to the wells coated with 3 μg/ml of VEGF₃₋₁₁₄ and incubated at room temperature for 1 h. […] Absorbance at 450 nm was measured and the Kd value was calculated as described previously.
binder,measurement,setting,value
B1,"IC50 of inhibition of VEGF-induced HUVEC proliferation (BrdU incorporation, 13.6 ng/ml VEGF3-114)",[1],~1 nM
same,binding result,[2],no binding (tested: 1:1000 dilution of VC300 mAb)
same,binding result,[3],no binding (tested: 1:1000 dilution of VC300 mAb)
same,binding result,[4],no binding (tested: 1:1000 dilution of VC300 mAb)
same,binding result,[5],no binding (tested: 1:1000 dilution of VC300 mAb)
same,Kd,[6],~2 nM
